Laboratory results: US20260231968A1, “AN ECO-FRIENDLY, SUSTAINABLE FOOD PRESERVATIVE” (priority 2023, published 2026)

Columns and labels:
[1] = tested on: Aspergillus flavus; assay: Microbial Growth Inhibition Test, broth microdilution optical method; assay type: cell-based
Procedure: The IC90 of psoriasin for several microorganisms was determined by Microbial Growth Inhibition Tests. The tests were performed using the Broth Microdilution Optical Method based on standardized protocols M27 (yeasts) and M38 (filamentous fungi) of the Clinical and Laboratory Standards Institute. […] MOPS, LB (Luria-Bertani), and TSB ([…]) medium types were used, depending on the species being tested. The absorbance was calibrated to each species, and was measured between 450 nm to 650 nm.
In addition, ethyl lauroyl arginate (LAE), a commercially available food preservative, was tested in similar growth conditions as a reference.

[2] = tested on: C. albicans; assay: Fungal growth in natural apple and beetroot juice; assay type: cell-based, Candida albicans; details: pH=7, 40 μM and 400 μM
Procedure: Natural beetroot and apple juice without preservatives, was diluted ×0.5 with PBS×1 to avoid high background absorbance. The juice was titrated to pH=7.4 with 1M NaOH, inoculated with C. albicans (1 colony/10 ml), treated with 40 μM and 400 μM His-psoriasin, and monitored with the same measuring program as the RPMI-MOPS experiments. In order to evaluate the effect of His-psoriasin on fungal growth in juice, natural apple and beetroot juices were inoculated without any preservatives with C. albicans. The samples were titrated to pH=7 and treated with 40 μM and 400 μM of recombinant His-psoriasin. The samples were placed in a 96 well-plate and absorbance at 600 nm was monitored vs. time.

[3] = tested on: Aspergillus flavus; assay: Chickpea paste assay inoculated with A. flavus; assay type: cell-based; details: for fungal load count on YAG-agarose plates: 30° C, after 48 and 72 hours
Procedure: Sterilized and frozen chickpeas (100 g) were boiled for 15 minutes and ground using a blender. The ground chickpeas were treated with chloramphenicol (34 μg/μl) and tetracycline (12.5 μg/μl) to prevent microbial growth. The chickpeas were then inoculated with 500 spores/g of A. flavus and divided into groups of 7 g, and each group was treated with 7 ml of PBS×1 with different His-psoriasin concentrations to reach final concentrations of 0 μM, 50 μM, 100 μM, and 200 μM. The different groups were then divided into 1 g of treated and inoculated chickpeas in 6 well plates (1 g/well) and incubated in a humidified incubator at 30° C. Every day, 1 g of treated chickpeas from each group was diluted in PBS×1 and seeded on YAG-agarose plates to count colonies and calculate the fungi development through time.
For the visual evaluation of the treated/non-treated and inoculated/not-inoculated samples, the samples were prepared in the same way, but incubated at room temperatures and divided into groups of 3 g each.
Chickpeas were boiled and ground and then treated with a combination of chloramphenicol and tetracycline antibiotics (to eliminate bacterial growth) at final concentrations of 34 μg/μl and 12.5 μg/μl, respectively. Samples were divided into ‘inoculated with Aspergillus flavus’ and ‘non-inoculated’, and ‘treated’ and ‘non-treated’ with 180 μM His-psoriasin. All samples were placed in 20° C.
In a follow-up experiment, inoculated chickpea paste samples were treated with three different recombinant His-psoriasin concentrations, namely 50 μM, 100 μM, and 200 μM, and incubated at 30° C. Fungal load count was performed on YAG-agarose plates with antibiotics (chloramphenicol (34 μg/μl) and tetracycline (12.5 μg/μl)) to prevent bacterial growth after 48 and 72 hours.

[4] = tested on: E. coli; assay: Thermal stability of psoriasin, E. coli standard growth assay; assay type: cell-based
Procedure: In another study, psoriasin stock (36 mg/mL in 1×PBS) was exposed to temperatures of 70° C., 80° C., and 90° C. for periods of 15, 30, and 60 minutes. After thermal exposure, the activity of the protein was assessed against E. coli in a standard growth assay with 0.4%, 0.2% or 0.1% psoriasin.

[5] = tested on: C. albicans; assay: Anti-fungal activity after lyophilization or oven drying; assay type: cell-based, Candida albicans
Procedure: The activity of psoriasin was assessed following lyophilization and oven drying. […] In particular, psoriasin was lyophilized and then tested for antimicrobial activity against C. albicans at concentrations of 0.5, 0.25, and 0.125 μM compared with psoriasin that had not been lyophilized.
In another experiment, psoriasin was oven-dried at 50° C. for 24 hours. Subsequently, psoriasin was tested for antimicrobial activity against C. albicans at concentrations of 0.5, 0.25, 0.125, 0.0625 μM compared with psoriasin that was not dried.

[6] = tested on: initial microbial load of plant-based meat substitute; assay: Microbial load of plant-based meat substitute during storage; assay type: cell-based
Procedure: The ability of psoriasin to extend the shelf life of a plant-based meat substitute was examined under standard storage conditions. Three groups, each stored as an open package at […], were assessed over the course of 16 days. The groups included i) an untreated control, ii) a nisin-treated sample, and iii) a psoriasin-treated sample at 0.65%. A single source of the plant-based meat substitute was used and each group was reproduced in triplicate. The microbial load of the plant-based meat substitute samples was based on the initial microbial load without the addition of antibiotics and without the addition of mold, yeast or bacteria. Samples from each group were taken on days 1, 3, 5, 10, 11 and 16 and total CFU count was determined by plating on LB and PDA agar petri dishes.

[7] = tested on: 3T3 cells; assay: Cell viability assay based on luminescence (cell-titer kit); details: 2-74 μM, 24 h
Procedure: To assess any potential deleterious effects of psoriasin, such as cytotoxicity, a cell viability assay was performed based on luminescence, in which decreased luminescence is indicative of reduced cell viability. Various concentrations of psoriasin ranging from 2-74 μM, were tested on 3T3 cells. Approximately 5000 cells were plated in each well of a 96 well-plate and following overnight incubation, psoriasin was added in the indicated concentration within the medium to the cells (performed in triplicate). Luminescence values were recorded after an additional 24 h using the cell-titer kit (Promega Ltd.) in a BioTek Synergy plate reader.

B1: psoriasin: Recombinant human psoriasin (S100a7) containing a histidine tag, amino acid sequence SEQ ID NO: 11, expression vector pET-28a (protein, listed as Homo sapiens)
chain: MSNTQAERSIIGMIDMFHKYTRRDDKIEKPSLLTMMKENFPNFLSACDKKGTNYLADVFEKKDKNEDKKIDFSEFLSLLGDIATDYHKQSHGAAPCSGGSQ
- IC90 ([1]; Aspergillus flavus, RPMI-MOPS): 600 nM
- inhibition of A. flavus growth ([1]; concentrations of 0.325 μM and above): nearly all growth
- inhibition of detectable A. flavus growth ([1]; concentrations of 0.6 μM and above): 100%
- fungal proliferation in juice [2]: not able to proliferate
- signs of fungal growth in chickpea paste (visual) ([3]; 180 μM, 20° C, after 10 days): did not show any signs of fungal growth
- fungal load count on YAG-agarose plates ([3]; 200 μM): No fungi had developed
- fungal load count on YAG-agarose plates ([3]; lower concentrations (50 μM, 100 μM)): reduced growth was observed
- antimicrobial activity against E. coli after thermal exposure ([4]; 70° C for 15, 30 and 60 minutes, all concentrations): retained full antimicrobial activity
- ability to inhibit E. coli after thermal exposure ([4]; 70° C, 80° C, 90° C for 15 minutes, 0.4%, 0.2% or 0.1% psoriasin): maintained its ability to inhibit the growth of E. coli
- antimicrobial activity against E. coli after thermal exposure ([4]; 80° C and 90° C for 1 hour): inhibited the growth of E. coli, though to a lesser extent
- activity against C. albicans after lyophilization vs not lyophilized ([5]; 0.5, 0.25 and 0.125 μM): showed the same activity
- activity against C. albicans after oven drying vs not dried ([5]; oven-dried at 50° C for 24 hours, 0.5, 0.25, 0.125, 0.0625 μM): showed the same activity
- increase of shelf life of plant-based meat substitute [6]: 3 Fold
- Yeast & Mold Count ([6]; Day 1): 2 × 10^2
- Total CFU count ([6]; Day 1, open package, psoriasin 0.65%): 1.2 × 10^4 CFU
- Total CFU count ([6]; Day 3): 1.2 × 10^4 CFU
- Yeast & Mold Count ([6]; Day 3): 2 × 10^2
- Total CFU count ([6]; Day 5): 1.2 × 10^4 CFU
- Yeast & Mold Count ([6]; Day 5): 2 × 10^2
- Total CFU count ([6]; Day 10): 6.65 × 10^5 CFU
- Yeast & Mold Count ([6]; Day 10): 2 × 10^2
- Total CFU count ([6]; Day 11): 6.5 × 10^5 CFU
- Yeast & Mold Count ([6]; Day 11): 2 × 10^2
- Total CFU count ([6]; Day 16): 2.4 × 10^6 CFU
- Yeast & Mold Count ([6]; Day 16): 1 × 10^3
- less microbial load than the other two groups (untreated, nisin) ([6]; psoriasin 0.65%): 4 logs
- cell viability (luminescence) [7]: No change in luminescence was detected
